Test results reported in patent US20200408781A1.

What was measured:
[1] = target: p217+ tau in pooled CSF from AD subjects (human tau protein or tau fragments phosphorylated at T217 and/or T212) (human) (UniProt P10636); assay: Simoa sandwich ELISA, pT3 capture; pooled AD CSF at 1:2 dilution
[2] = target: p217+ tau in pooled CSF from AD subjects (human tau protein or tau fragments phosphorylated at T217 and/or T212) (human) (UniProt P10636); assay: Simoa sandwich ELISA, pT3 capture; pooled AD CSF at 1:4 dilution
[3] = target: p217+ tau in pooled CSF from AD subjects (human tau protein or tau fragments phosphorylated at T217 and/or T212) (human) (UniProt P10636); assay: Simoa sandwich ELISA, pT3 capture; pooled AD CSF at 1:8 dilution
[4] = target: p217+ tau in pooled CSF from AD subjects (human tau protein or tau fragments phosphorylated at T217 and/or T212) (human) (UniProt P10636); assay: Simoa sandwich ELISA, pT3 capture; pooled AD CSF at 1:16 dilution
[5] = target: p217+ tau in pooled CSF from AD subjects (human tau protein or tau fragments phosphorylated at T217 and/or T212) (human) (UniProt P10636); assay: Simoa sandwich ELISA, pT3 capture; pooled AD CSF at 1:32 dilution
[6] = target: p217+ tau in pooled CSF from AD subjects (human tau protein or tau fragments phosphorylated at T217 and/or T212) (human) (UniProt P10636); assay: Simoa sandwich ELISA, pT3 capture; pooled AD CSF at 1:64 dilution

p217+ tau in pooled CSF from AD subjects (human tau protein or tau fragments phosphorylated at T217 and/or T212) (human), sequence (P10636 other isoform, or with tags, fused parts or gaps limits assumed): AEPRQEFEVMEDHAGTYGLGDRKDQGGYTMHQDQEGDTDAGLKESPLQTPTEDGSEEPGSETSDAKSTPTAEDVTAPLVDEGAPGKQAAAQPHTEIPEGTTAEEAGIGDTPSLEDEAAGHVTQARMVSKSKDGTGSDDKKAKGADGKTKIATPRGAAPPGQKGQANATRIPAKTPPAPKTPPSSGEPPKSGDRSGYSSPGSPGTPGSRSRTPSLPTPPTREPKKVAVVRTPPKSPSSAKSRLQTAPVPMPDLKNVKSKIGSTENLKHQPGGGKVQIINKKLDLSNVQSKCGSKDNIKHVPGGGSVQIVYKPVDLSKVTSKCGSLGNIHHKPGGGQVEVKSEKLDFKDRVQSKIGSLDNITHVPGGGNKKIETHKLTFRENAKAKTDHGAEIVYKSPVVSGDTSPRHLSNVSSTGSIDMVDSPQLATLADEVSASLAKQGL

Quanterix tau 2.0 assay detector (antibody)
S/N (Signal/Noise) [1]: 525 | S/N (Signal/Noise) [2]: 262 | S/N (Signal/Noise) [3]: 147 | S/N (Signal/Noise) [4]: 75 | S/N (Signal/Noise) [5]: 35 | S/N (Signal/Noise) [6]: 19
